Publication PMC5992102

B1: Cy5-labeled 30-mer, one CpG site (dsDNA)
DNA 1: GAAGCTGGGACTTCCGGGAGGAGAGTGCAA
DNA 2: TTGCACTCTCCTCCCGGAAGTCCCAGCTTC

What was measured:
[1] = biological target: Dnmt3b-C (C-terminal catalytic domain of mouse Dnmt3b) (mouse)
Dnmt3b-C = Dnmt3b-C (mouse, UniProt O88509 558-859); experiment: nitrocellulose filter binding

Molecule | DNA methylation activity of Dnmt3b-C in the presence of Dnmt3L (fold activation) [1] [fold] | binding result (Dnmt3b-C)
Dnmt3L (from UniProt Q9CWR8 1-421) (natural protein) | 6 | 
B1 |  | binds
